In the DeepSol protein solubility set:

Assay: soluble on expression in E. coli; label from the status in PepcDB or PDB records

Row | Sequence | soluble on expression in E. coli
1 | GLAIEGPSEAKMSCKDNKDGSCTVEYIPFTPGDYDVNITFGGRPIPGSPFRVPVKDVVDPGKVKCSGPGLGAGVRARVPQTFTVDCSQAGRAPLQVAVLGPTGVAEPVEVRDNGDGTHTVHYTPATDGPYTVAVKYADQEVPRSPFKIKVLPAHDASKVRASGPGLNASGIPASLPVEFTIDARDAGEGLLTVQILDPEGKPKKANIRDNGDGTYTVSYLPDMSGRYTITIKYGGDEIPYSPFRIHALPTGDASKCLVTVSIGGHGLGACLGPRIQIGQETVITVDAKAAGEGKVTCTVSTPDGAELDVDVVENHDGTFDIYYTAPEPGKYVITIRFGGEHIPNSPFHVLACDPLPHEEEPSEVPQLRQPYAPPRPGARPTHWATEEPVVPVEPMESMLRPFNLVIPFAVQKGELTGEVRMPSGKTARPNITDNKDGTITVRYAPTEKGLHQMGIKYDGNHIPGSPLQFYVDAINSRHVSAYGPGLSHGMVNKPATFTIVTKDAGEGGLSLAVEGPSKAEITCKDNKDGTCTVSYLPTAPGDYSIIVRFDDKHIPGSPFTAKITGDDSMRTSQLNVGTSTDVSLKITESDLSQLTASIRAPSGNEEPCLLKRLPNRHIGISFTPKEVGEHVVSVRKSGKHVTNSPFKILVGPSEIGDASKVRVWGKGLSEGHTFQVAEFIVDTRNAGYGGLGLSIEGPSKVDINCEDMEDGTCKVTYCPTEPGTYIINIKFADKHVPGSPFTVKVTGEGRMKESITRRRQAPSIATIGSTCDLNLKIPGNWFQMVSAQERLTRTFTRSSHTYTRTERTEISKTRGGETKREVRVEESTQVGGDPFPAVFGDFLGRERLGSFGSITRQQEGEASSQDMTAQVTSPSGKVEAAEIVEGEDSAYSVRFVPQEMGPHTVAVKYRGQHVPGSPFQFTVGPLGEGGAHKVRAGGTGLERGVAGVPAEFSIWTREAGAGGLSIAVEGPSKAEIAFEDRKDGSCGVSYVVQEPGDYEVSIKFNDEHIPDSPFVVPVASLSDDARRLTVTSLQETGLKVNQPASFAVQLNGARGVIDARVHTPSGAVEECYVSELDSDKHTIRFIPHENGVHSIDVKFNGAHIPGSPFKIRVGEQSQAGDPGLVSAYGPGLEGGTTGVSSEFIVNTLNAGSGALSVTIDGPSKVQLDCRECPEGHVVTYTPMAPGNYLIAIKYGGPQHIVGSPFKAKVTGPRLSGGHSLHETSTVLVETVTKSSSSRGSSYSSIPKFSSDASKVVTRGPGLSQAFVGQKNSFTVDCSKAGTNMMMVGVHGPKTPCEEVYVKHMGNRVYNVTYTVKEKGDYILIVKWGDESVPGSPFKVKVP | soluble
2 | MTLYPKLILDALATVRYPGTGKNLLEAEMVADNLRIDGMAVSFSLIFEKPTDPFMKSMLKAAETAIHTYVSPDVQVTITTESKQAARPEVGKLLPQVKNIIGISSGKGGVGKSTVSANLAVALAKLGYKVGLLDADIFGPSMPKMFQVEDARPYAEKINGRDLIIPVEKYGVKLLSIGFFVDPDQATLWRGGMASNALKQLIGDADWGDLDYFLIDLPPGTSDIHLTVVQTLAMTGAIVVSTPQAVALADARKGINMFTNDKVNVPILGLVENMAWFTPAELPENKYYIFGKEGAKKLAEEMNVPLLGQIPIVQSICEGGDNGTPVALDEDTVTGRAFLSLAASVVRQVDRRNVEMAPTKIVEMH | not soluble
3 | MGSDKIHHHHHHMTIRINADFSQRIVVQPGDYHWVESPMPGVQRMMLDRVGGETARATSIVRYEPFSEFSPHIHSGGEEFFVLEGVFSDEHQCYGKGSYVRNPIGSSHTPKIGKEGATIFVKLQQFDEKDTEQKVIDTQTQPWFQGLVGGLKVMPLHEFESEHVALVKWAPNTQFTAHQHWGGEEIFVLEGTFHDEHGRYPKGSWLRSPHLSRHSPFTKEEGALIYVKTGHL | not soluble
4 | MYVCKHCGSAMNKDVEIDIVGIKGNTLYVGECKWSNKKIDVRVLDRLRSKVPYLLKDLQVDNLSVVYYLFSRSGFDGLKETEEVKLVELKDLFR | not soluble
5 | MSLLADLVNLDISDNSEKIIAEYIWVGGSGMDMRSKARTLPGPVTDPSKLPKWNYDGSSTGQAPGQDSEVILYPQAIFKDPFRRGNNILVMCDAYTPAGEPIPTNKRHAAAEIFANPDVIAEVPWYGIEQEYTLLQKDVNWPLGWPIGGFPGPQGPYYCSIGADKSFGRDIVDAHYKASLYAGINISGINGEVMPGQWEFQVGPSVGISAADEIWIARYILERITEIAGVVVSFDPKPIPGDWNGAGAHTNYSTKSMREEGGYEIIKKAIEKLGLRHKEHISAYGEGNERRLTGHHETADINTFLWGVANRGASIRVGRDTEKEGKGYFEDRRPASNMDPYVVTSMIAETTLLWNP | soluble
6 | MTESTSLDELFKDRYSQNDERYKKMSETGFEPVIVVHPWEPRRNNNYRNRGNFGGGRGGGYQHRDNSNRGGWVPRGGGQRGGYRGGWQDRGGHRGGGGWQDRGGQRQPYRGGDRRRQYND | soluble
7 | MGSDKIHHHHHHMKSMWCIHDRIFLKKTREVFDVDIKAYKERVEKAVEYLKGQIDETPEIAIILGSGLSVIADEVEKEGTSKKIPYSEIPGFPISTAPGHKGELIFGKLFGKNVMLMNGRFHYYEGYSMKEVTFPIRVMQLLGVEILIVTNAAGGLNPDFEVGRPMIITDHINFMGDNPLIGPNVDEWGPRFPDMSEPYDKELIELAYNSARELGIPVYQGVYVAVTGPCFETPAELRMLRKFGADAVGMSTVPEVIVARHGQIRVLGISAITDRAVPEDLKPLTAEEVLEVAEKTGRKIAQIIFEVVRKL | not soluble
8 | MEVKYGLHPTLGEHGERELLALQKVDYPKGDVKAQAKHTARTLLECYNCHSLGEYNTLLNLYNITVYEVRGSVDGKEYHGIMYGALDDNGQQVGTPFKSSKFGKVFGYEALQKKFAASAEKVKKDNLPERLEHHHHHH | not soluble
9 | ANVEIYTKETCPYCHRAKALLSSKGVSFQELPIDGNAAKREEMIKRSGRTTVPQIFIDAQHIGGYDDLYALDARGGLDPLLK | soluble
10 | MRGSHHHHHHGSAELHLESRGGSGTQLRDGAKVATGRIICREAHTGFHVWMNERQVDGRAERYVVQSKDGRHELRVRTGGDGWSPVKGEGGKGVSRPGQEEQVFFDVMADGNQDIAPGEYRFSVGGACVVPQEDNKQGFTPSGTTGTTKLTVT | soluble
11 | MDWRHEAVCRDEDPELFFPVGNSGPALAQVAAAKVVCNRCPVTSQCLAWALETGQDAGVWGGMSEDERRALKRRKNRGRGRARATA | not soluble
12 | MFKPELLSPAGTLKNMRYAFAYGADAVYAGQPRYSLRVRNNEFNHENLQLGINEAHALGKKFYVVVNIAPHNAKLKTFIRDLKPVVEMGPDALIMSDPGLIMLVREHFPEMPIHLSVQANAVNWATVKFWQQMGLTRVILSRELSLEEIEEIRNQVPDMEIEIFVHGALCMAYSGRCLLSGYINKRDPNQGTCTNACRWEYNVQEGKEDDVGNIVHKYEPIPVQNVEPTLGIGAPTDKVFMIEEAQRPGEYMTAFEDEHGTYIMNSKDLRAIAHVERLTKMGVHSLKIEGRTKSFYYCARTAQVYRKAIDDAAAGKPFDTSLLETLEGLAHRGYTEGFLRRHTHDDYQNYEYGYSVSDRQQFVGEFTGERKGDLAAVAVKNKFSVGDSLELMTPQGNINFTLEHMENAKGEAMPIAPGDGYTVWLPVPQDLELNYALLMRNFSGETTRNPHGK | soluble
13 | MSLANIKEIARLANVSVSTVSRVLNHHPYVSEEKRKLVHQVMKELDYTPNRTAIDLIRGKTHTVGVILPYSDHPCFDKIVNGITKAAFQHEYATTLLPTNYNPDIEIKYLELLRTKKIDGLIITSRANHWDSILAYQEYGPVIACEDTGDIDVPCAFNDRKTAYAESFRYLKSRGHENIAFTCVREADRSPSTADKAAAYKAVCGRLEDRHMLSGCNDMNDGELAAEHFYMSGRVPTAIYANSDEVAAGIHLFAKKNNWDVEIIGEGNTSISRVLGFPSLDLNLEQLGIAAFSLFLQDEPADIKIQHKFKKKAEGHHHHHH | soluble
14 | MSLSGFDADAIDRTTAADLAEVGSDKWTRYPGCIGAFIAEMDYGLAPCIQQAIDSACDHCKLGYIPEPWKRRVAEACAGWQKSHYGWDVDPDIIRVVPDVLEAYEIFLRELVGAGNAVVVPTPAYMPFLSVPKLYDVDVIEIEMLQGTDETTGEREWLFDFNAIERAFAAGCHAFVLCNPHNPIGKVLTLAEEQRLCELAERYDVRIFNDEIHAPFVFEGRHIPYPTISKAAARQSMTATSASKSFNIPGTKCAQVLLTNPADREMWAERAEWSEHQTATIGAIATTTAYNEGDPWFQDALSYVRRNLGLFDKQMRTRFSGVGYIRPRGTYIAWLDFGPLGIDDPAAYFLEKAKVALTDGRSCGRAGAGCVRVNMAMPYPLLVDCLNRMHDALQADGEGHHHHHH | soluble
15 | MDWFSWLSRTNLEASLIYEYGLSFSNNELEYEDIAYFNHEFLQSMGISIAKHRLEILKLARRDRKPSPLTARSIFRVLIAIKKTGKCFSEHVRAWIRREESSRALVVVSRSTSSSGNGRWKSARKKRLVMPSNGNGVKEERLLLTNGTPCRLDSFSNPKVSSGYEDDDNHWGNKDVEEKIKWDSMFQNLKPT | soluble
16 | MAPKVFYISDGTAITAEVFGHAVLSQFPLEFESLTIPFVETLAKAENVKRQINDCFITTGERPLVFHSIVKPEIRDIIYSSEGLDYDFLNTFVAPLEQHLGVSASPVLHRTHGKANQGYEARIDAINFAMDNDDGQTMKHMDQADLILLGVSRCGKTPSSLYLSMQFGIKAANYPFTEDDMDNLKLPEALKRNKKKLFGLTIDPVRLHEIRQSRMENSRYSSLKQCRLEVKEVEMMFKRERIPYIDTTNHSVEEIATKILDVTGLERHMFMAGDPLEHHHHHH | soluble
17 | MGSDKIHHHHHHLPAHLTPIQMEPEKALLRVHCQSDIDQLLSESVVFTLLSERNLGPKMLGVFPGGRFEQFIPSRALQCLEISKPGLSKLIAPIVARVHTLDAPIPKEPQTLQTARQWLERFKKTPAGERPIEMYLTQAKVPKSDYPSTITVAQLERELNFVEFFLQHSHSPVVFSHNDLQEGNFLLIDGYKLADDGTVLTPDGKPTNDDPLSLIDFEYCSYNYRGFDLGNHFCEYGYDYNEAEAPYYKIHQHYFEVEKERKVFCEAYLDEVYKMRACGDNPHFPSDLVTGDREKDLNKIIEESILFMPVSNIFWVCWSLINAEESSIAFDYGAYGRDRLALYFHQKKNLEKYLSNL | not soluble
18 | MDRFNEYRIMWVLVLFDLPTETKKEKKAYADFRKNLQKDGFTMFQFSIYVRHCGSSENAAVHIKRVKSFLPEFGHVGIMCITDKQFGDIELFYGKKVQDVNTPGQQLELFLEHHHHHH | not soluble
19 | MMKPPSAIMETALYADDLDAAEAFYRDVFGLEMVLKLPGQLVFFKCGRQMLLLFDPQESSRADANNPIPRHGAVGQGHFCFYADDKAEVDEWKTRFEALEIPVEHYHRWPNGSYSVYIRDPAGNSVEVGEGKLWGFE | not soluble
20 | MQQFATLSLASLLMLGTFTAFAAENGDAPASGWHIDDSATKGASGQQGMFDGVRLTEQQRQQMRDLMHQSRQDKPAFNTEDVKAMHKLVTAETFDEAAVRAQITRMMSVQIERQIQMTRVRNQMYNLLTPAQKEILELKHKQRMKEMQQQISMFNQMVAPSSGTTNHTETDSPELEHHHHHH | soluble
21 | MGVNGAAGRSPGPKAVKPASVAIAVDYAMLTHEQAAVCAMRHERIDINPEVMGGKPVVRGTRIPVEMILRKLGAGLSTAEIIADHPRLTADDILAVQTFAADYLADQDVIFG | not soluble
22 | MHHHHHHSSGVDLGTENLYFQSMSVGFIGAGQLAFALAKGFTAAGVLAAHKIMASSPDMDLATVSALRKMGVKLTPHNKETVQHSDVLFLAVKPHIIPFILDEIGADIEDRHIVVSCAAGVTISSIEKKLSAFRPAPRVIRCMTNTPVVVREGATVYATGTHAQVEDGRLMEQLLSSVGFCTEVEEDLIDAVTGLSGSGPAYAFTALDALADGGVKMGLPRRLAVRLGAQALLGAAKMLLHSEQHPGQLKDNVSSPGGATIHALHVLESGGFRSLLINAVEASCIRTRELQSMADQEQVSPAAIKKTILDKVKLDSPAGTAL | soluble
